# Measured values as given in patent US20260126450A1.
# Columns and labels:
# [1] = biological target: surface HIV-1 Env BG505 SOSIP (HIV-1 BG505.DS-SOSIP trimeric antigen), membrane-bound on HEK293 cells (HIV-1); test: droplet co-expression, FACS sort for anti-Kappa-FITC, NGS of VH genes
# [2] = biological target: surface HIV-1 Env BG505 SOSIP (HIV-1 BG505.DS-SOSIP trimeric antigen), membrane-bound on HEK293 cells (HIV-1); test: FACS, anti-Kappa-FITC stain of HEK293 cells co-expressing surface Env and secreted IgG1 after 24 h in droplets
substance,measurement,setting,value
VRC01 (antibody),Enrichment Ratio (FITC+ prevalence / FITC- prevalence),[1],2
same,fold anti-Kappa binding against cells expressing 1-20,[2],> 5 fold
